Measurements reported in patent publication US20030229005.

T1: Dnp-GPVNFRVC(Me)-NH2
T1 chain: GPVNFRVX


Tests used:
Dnp-GPVNFRVC(Me)-NH2 = target: T1, Dnp-GPVNFRVC(Me)-NH2

Sequence of type IV collagen, P08572 (P08572 26-1712, chain 1 of 2): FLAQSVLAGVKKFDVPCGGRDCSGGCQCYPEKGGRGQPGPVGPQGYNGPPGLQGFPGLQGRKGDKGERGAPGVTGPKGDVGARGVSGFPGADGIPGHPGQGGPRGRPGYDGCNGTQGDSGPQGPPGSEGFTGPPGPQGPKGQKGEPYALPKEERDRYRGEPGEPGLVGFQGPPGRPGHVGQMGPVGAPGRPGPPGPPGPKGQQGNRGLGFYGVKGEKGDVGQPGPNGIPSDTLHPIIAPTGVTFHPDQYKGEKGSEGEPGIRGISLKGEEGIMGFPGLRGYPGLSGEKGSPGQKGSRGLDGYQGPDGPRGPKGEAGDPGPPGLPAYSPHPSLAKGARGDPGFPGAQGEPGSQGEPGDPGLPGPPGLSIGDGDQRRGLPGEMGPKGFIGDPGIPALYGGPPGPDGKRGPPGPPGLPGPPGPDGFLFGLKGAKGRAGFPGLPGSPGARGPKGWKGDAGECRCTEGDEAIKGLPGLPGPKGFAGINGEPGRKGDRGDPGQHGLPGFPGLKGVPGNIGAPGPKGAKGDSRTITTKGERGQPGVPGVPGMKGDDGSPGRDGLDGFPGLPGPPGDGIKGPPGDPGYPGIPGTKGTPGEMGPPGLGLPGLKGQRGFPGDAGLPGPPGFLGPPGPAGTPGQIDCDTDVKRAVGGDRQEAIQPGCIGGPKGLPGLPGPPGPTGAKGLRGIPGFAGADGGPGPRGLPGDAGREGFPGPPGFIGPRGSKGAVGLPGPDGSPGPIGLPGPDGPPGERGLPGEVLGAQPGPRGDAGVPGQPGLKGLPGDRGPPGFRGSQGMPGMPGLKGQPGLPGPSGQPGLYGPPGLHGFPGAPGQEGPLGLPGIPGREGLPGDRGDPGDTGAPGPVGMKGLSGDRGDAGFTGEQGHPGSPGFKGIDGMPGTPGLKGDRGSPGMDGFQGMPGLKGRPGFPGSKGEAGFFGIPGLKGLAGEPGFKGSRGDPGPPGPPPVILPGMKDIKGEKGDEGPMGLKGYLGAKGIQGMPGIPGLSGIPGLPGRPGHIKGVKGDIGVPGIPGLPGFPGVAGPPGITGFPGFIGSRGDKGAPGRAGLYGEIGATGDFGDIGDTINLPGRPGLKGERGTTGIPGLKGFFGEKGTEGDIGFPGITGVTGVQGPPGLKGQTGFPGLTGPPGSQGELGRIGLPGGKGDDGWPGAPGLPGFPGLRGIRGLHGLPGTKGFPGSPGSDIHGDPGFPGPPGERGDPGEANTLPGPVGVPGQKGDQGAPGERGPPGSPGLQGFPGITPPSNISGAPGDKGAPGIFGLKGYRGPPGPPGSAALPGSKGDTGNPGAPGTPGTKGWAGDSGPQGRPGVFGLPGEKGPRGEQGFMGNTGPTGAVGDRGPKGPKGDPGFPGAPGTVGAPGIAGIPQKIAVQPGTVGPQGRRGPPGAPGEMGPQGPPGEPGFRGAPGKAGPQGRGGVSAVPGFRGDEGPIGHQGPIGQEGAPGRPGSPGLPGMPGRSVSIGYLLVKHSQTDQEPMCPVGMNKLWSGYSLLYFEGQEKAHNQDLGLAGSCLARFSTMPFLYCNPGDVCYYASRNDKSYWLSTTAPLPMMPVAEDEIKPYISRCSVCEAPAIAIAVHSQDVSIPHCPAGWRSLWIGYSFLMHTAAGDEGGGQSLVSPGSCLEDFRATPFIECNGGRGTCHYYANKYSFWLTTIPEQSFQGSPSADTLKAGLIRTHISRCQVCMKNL
Sequence of type IV collagen, P08572 (chain, as listed by the source, chain 2 of 2): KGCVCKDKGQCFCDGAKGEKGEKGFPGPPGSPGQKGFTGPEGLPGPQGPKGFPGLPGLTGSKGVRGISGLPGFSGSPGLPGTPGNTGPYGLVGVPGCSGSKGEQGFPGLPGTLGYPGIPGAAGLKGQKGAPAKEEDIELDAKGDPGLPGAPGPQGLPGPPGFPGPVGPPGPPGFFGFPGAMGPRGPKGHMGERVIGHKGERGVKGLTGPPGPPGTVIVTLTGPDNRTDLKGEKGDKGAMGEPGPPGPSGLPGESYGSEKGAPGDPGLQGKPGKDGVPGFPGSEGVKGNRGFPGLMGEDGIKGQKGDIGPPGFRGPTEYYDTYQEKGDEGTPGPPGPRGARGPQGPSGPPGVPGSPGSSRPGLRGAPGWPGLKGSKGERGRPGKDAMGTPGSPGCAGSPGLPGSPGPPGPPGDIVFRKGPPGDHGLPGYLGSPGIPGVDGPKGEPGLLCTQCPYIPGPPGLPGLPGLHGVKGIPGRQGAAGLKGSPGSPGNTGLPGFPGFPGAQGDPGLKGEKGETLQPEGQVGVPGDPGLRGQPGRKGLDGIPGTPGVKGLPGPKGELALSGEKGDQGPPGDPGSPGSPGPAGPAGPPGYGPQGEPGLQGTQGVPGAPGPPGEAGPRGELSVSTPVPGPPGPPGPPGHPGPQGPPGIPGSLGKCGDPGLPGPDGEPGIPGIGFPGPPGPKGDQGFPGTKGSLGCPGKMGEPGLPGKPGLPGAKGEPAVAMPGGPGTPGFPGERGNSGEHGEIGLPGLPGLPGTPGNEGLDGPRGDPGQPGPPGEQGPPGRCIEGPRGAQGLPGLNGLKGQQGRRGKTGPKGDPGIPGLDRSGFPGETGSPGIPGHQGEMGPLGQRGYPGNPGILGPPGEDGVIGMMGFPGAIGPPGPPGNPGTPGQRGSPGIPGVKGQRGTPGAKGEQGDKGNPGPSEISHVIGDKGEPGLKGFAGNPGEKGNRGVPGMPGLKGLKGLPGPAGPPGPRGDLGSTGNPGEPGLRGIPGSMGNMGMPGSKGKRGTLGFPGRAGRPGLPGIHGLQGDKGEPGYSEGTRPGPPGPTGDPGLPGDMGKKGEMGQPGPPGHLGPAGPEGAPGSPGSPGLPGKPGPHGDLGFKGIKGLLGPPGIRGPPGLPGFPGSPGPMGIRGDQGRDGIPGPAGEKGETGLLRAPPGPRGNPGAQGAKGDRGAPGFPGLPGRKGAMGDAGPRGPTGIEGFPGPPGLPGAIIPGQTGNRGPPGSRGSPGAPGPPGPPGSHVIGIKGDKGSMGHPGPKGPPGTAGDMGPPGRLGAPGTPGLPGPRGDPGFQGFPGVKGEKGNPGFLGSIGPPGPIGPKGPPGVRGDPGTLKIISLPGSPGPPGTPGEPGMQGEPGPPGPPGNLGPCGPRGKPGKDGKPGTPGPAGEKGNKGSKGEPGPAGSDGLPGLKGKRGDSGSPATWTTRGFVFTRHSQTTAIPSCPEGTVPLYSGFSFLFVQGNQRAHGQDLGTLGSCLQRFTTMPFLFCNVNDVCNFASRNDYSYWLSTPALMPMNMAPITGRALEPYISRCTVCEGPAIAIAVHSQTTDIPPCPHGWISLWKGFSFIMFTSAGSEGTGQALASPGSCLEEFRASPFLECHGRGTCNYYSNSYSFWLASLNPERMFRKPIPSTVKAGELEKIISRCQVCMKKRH

Row | Protein | cleavage seen on a gel (type IV collagen, P08572) | Selectivity v. Coll-3, substrate 5 uM (Dnp-GPVNFRVC(Me)-NH2) [unitless]
1 | collagenase 1 (protein) FVLTEGNPRWEQTHLTYRIENYTPDLPRADVDHAIEKAFQLWSNVTPLTFTKVSEGQADIMISFVRGDHRDNSPFDGPGGNLAHAFQPGPGIGGDAHFDEDERWTNNFREYNLHRVAAHELGHSLGLSHSTDIGALMYPSYTFSGDVQLAQDDIDGIQAIYGRSQNPVQPIGPQTPKACDSKLTFDAITTIRGEVMFFKDRFYMRTNPFYPEVELNFISVFWPQLPNGLEAAYEFADRDEVRFFKGNKYWAVQGQNVLHGYPKDIYSSFGFPRTVKHIDAALSEENTGKTYFFVANKYWRYDEYKRSMDPGYPKMIAHDFPGIGHKVDAVFMKDGFFYFFHGTRQYKFDPKTKRILTLQKANSWFNCRKN | Both collagenase 1 and gelatinase B processed type IV collagen under the conditions used in our experiments | –
2 | human Gelatinase-A (protein) YNFFPRKPKWDKNQITYRIIGYTPDLDPETVDDAFARAFQVWSDVTPLRFSRIHDGEADIMINFGRWEHGDGYPFDGKDGLLAHAFAPGTGVGGDSHFDDDELWTLGEGQVVRVKYGNADGEYCKFPFLFNGKEYNSCTDTGRSDGFLWCSTTYNFEKDGKYGFCPHEALFTMGGNAEGQPCKFPFRFQGTSYDSCTTEGRTDGYRWCGTTEDYDRDKKYGFCPETAMSTVGGNSEGAPCVFPFTFLGNKYESCTSAGRSDGKMWCATTANYDDDRKWGFCPDQGYSLFLVAAHEFGHAMGLEHSQDPGALMAPIYTYTKNFRLSQDDIKGIQELYGASPDIDLGTGPTPTLGPVTPEICKQDIVFDGIAQIRGEIFFFKDRFIWRTVTPRDKPMGPLLVATFWPELPEKIDAVYEAPQEEKAVFFAGNEYWIYSASTLERGYPKPLTSLGLPPDVQRVDAAFNWSKNKKTYIFAGDKFWRYNEVKKKMDPGFPKLIADAWNAIPDNLDAVVDLQGGGHSYFFKGAYYLKLENQSLKSVKFGSIKSDWLGC | No detectable cleavage was observed by gelatinase A in an earlier experiment | 88
